Test results from patent US20260226440.

How the values were obtained:
Experiment in all cases: cell_activity
[1] = tested on: Type V nuclease-mutMMLV RT fusion; details: HEK293T
[2] = tested on: T1, Type V CRISPR nuclease (8218); details: indels in HEK293T; PAM 5'-TTTC-3'; reference
T1 sequence: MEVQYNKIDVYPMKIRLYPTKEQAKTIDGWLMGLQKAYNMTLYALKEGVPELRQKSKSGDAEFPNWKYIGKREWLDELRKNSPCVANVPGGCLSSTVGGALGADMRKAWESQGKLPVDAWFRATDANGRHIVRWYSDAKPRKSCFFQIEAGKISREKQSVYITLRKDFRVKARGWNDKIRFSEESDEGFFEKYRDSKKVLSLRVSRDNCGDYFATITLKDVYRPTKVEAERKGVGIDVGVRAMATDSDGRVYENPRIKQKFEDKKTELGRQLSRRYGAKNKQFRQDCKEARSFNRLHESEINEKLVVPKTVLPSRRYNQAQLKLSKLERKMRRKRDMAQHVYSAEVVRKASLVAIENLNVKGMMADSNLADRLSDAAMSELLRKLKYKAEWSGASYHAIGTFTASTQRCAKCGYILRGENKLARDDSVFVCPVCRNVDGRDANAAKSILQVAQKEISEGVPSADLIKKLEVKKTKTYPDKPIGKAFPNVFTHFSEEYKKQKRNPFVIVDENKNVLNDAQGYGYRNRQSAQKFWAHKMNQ

[3] = target: nuclease-RT fusion S205G S205G (numbering of SEQ ID NO: 1) (UniProt P03355); details: HEK293T; PAM TTTC; average ratio, EMX1 and VEGFA tested; RT editing ratio 1.654
[4] = target: nuclease-RT fusion S136G S136G (numbering of SEQ ID NO: 1) (UniProt P03355); details: HEK293T; PAM TTTC; average ratio, EMX1 and VEGFA tested; RT editing ratio 1.907
[5] = target: nuclease-RT fusion D237G D237G (numbering of SEQ ID NO: 1) (UniProt P03355); details: HEK293T; PAM TTTC; loss of activity; average ratio, EMX1 and VEGFA tested; RT editing ratio 0.038
[6] = target: nuclease-RT fusion D137G D137G (numbering of SEQ ID NO: 1) (UniProt P03355); details: HEK293T; PAM TTTC; average ratio, EMX1 and VEGFA tested; RT editing ratio 1.665
[7] = tested on: nuclease-RT fusion E328R E328R (numbering of SEQ ID NO: 1); details: HEK293T; PAM TTTC; loss of activity; average ratio, EMX1 and VEGFA tested; RT editing ratio 0.173
[8] = tested on: nuclease-RT fusion R250G R250G (numbering of SEQ ID NO: 1); details: HEK293T; PAM TTTC; loss of activity; average ratio, EMX1 and VEGFA tested; RT editing ratio 0.022
[9] = target: nuclease-RT fusion D125G D125G (numbering of SEQ ID NO: 1) (UniProt P03355); details: HEK293T; PAM TTTC; average ratio, EMX1 and VEGFA tested; RT editing ratio 1.436
[10] = target: nuclease-RT fusion N127R N127R (numbering of SEQ ID NO: 1) (UniProt P03355); details: HEK293T; PAM TTTC; average ratio, EMX1 and VEGFA tested; RT editing ratio 1.507
[11] = tested on: nuclease-RT fusion A138R A138R (numbering of SEQ ID NO: 1); details: HEK293T; PAM TTTC; average ratio, EMX1 and VEGFA tested; RT editing ratio 1.266
[12] = tested on: nuclease-RT fusion D137R D137R (numbering of SEQ ID NO: 1); details: HEK293T; PAM TTTC; average ratio, EMX1 and VEGFA tested; RT editing ratio 1.392

CACCGCCGUCAUCAACAUUGCCUUUCUGUUGCCCAGUAAACUUAUCAUACGGAGCCAGGCUAUAUAAUUAGCUACUUCUCGUGAGGUGCAGCCACGAGGUGCGAAAGUACGCCGCAAUGUGCGGAAUUCGCACGAAAGUUGGCGGAUUUCUUCGGAAAUCGAGCCAAUAACCAUCUCCAUAAAUAUGUGUGGUGAUGGACUGCAAGUGUUGCCCUCAUAACUUAUCUUUUUUGCG / TGTTGCCCTCATAACTTATC / GATAAGTTATGAGGGCAACA
activity ([1]; PAM TTTC, precise editing 0.249%): 14.6 % indel

CACCGUGUCAGGCCUGCUAGUCAGCCACAGUUUGGGGAAAGCUGUGCAGCCUGUAACCCCCCCAGGAGAAGCUGGGAAAAACCGUCAUCAACAUUGCCUUUCUGUUGCCCAGUAAACUUAUCAUACGGAGCCAGGCUAUAUAAUUAGCUACUUCUCCGUGAGGUGCAGCCACGAGGUGCGAAAGUACGCCGCAAUGUGCGGAAUUCGCACGAAAGUUGGCGGAUUUCUUCGGAAAUCGAGCCAAUAAGCAUAUCCAUAUUAUCUGCGGAUGGAUGUGCACUGCAAGUGUUGCCCUCAUAACUUAUCUUUUUUGCG / TGTTGCCCTCATAACTTATC / GATAAGTTATGAGGGCAACA [sgRNA_C16_xrRNA_EMX1_TTTC editing template RNA ; EMX1 target]
activity ([1]; PAM TTTC, precise editing 1.678%): 10.7 % indel

CACCGUGUCAGGCCUGCUAGUCAGCCACAGUUUGGGGAAAGCUGUGCAGCCUGUAACCCCCCCAGGAGAAGCUGGGAAAAAUGAGGAUGUAGUCACGGAUUCAUUAUCAGGUUCUGGCUGCAGGGUGCCUGAUCUGUGCCAGGGUUAAGCAUGCUGGUGAGGUGCAGCCACGAGGUGCGAAAGUACGCCGCAAUGUGCGGAAUUCGCACGAAAGUUGGCGGAUUUCUUCGGAAAUCGAGCCAAUAACCAUCUCCAUAAAUAUGUGUGGUGAUGGACUGCAAGAUUAUCAGCAAGUGGCUGCAUUUUUUGCG / ATTATCAGCAAGTGGCTGCA / TGCAGCCACTTGCTGATAAT
activity ([1]; PAM ATTC (inferred from RTT), precise editing 1.993%): 7.64 % indel

GUGAGGUGCAGCCACGAGGUGCGAAUAGGAAGUACGCAGCAAUGUGCUGAAUCGUUCGCACGAAAAUUGGCAUUUUUGAAAACCAAAGCCAAUAAUCAUAUCCAUAAAUAUGUGUGGUUAUGAACUGCAAGUGUUGCCCUCAUAACUUAUC / TGTTGCCCTCATAACTTATC / GATAAGTTATGAGGGCAACA [parent sgRNA EMX1 ; EMX1 target]
activity (relative to parent) [2]: 1

UGUCAGGCCUGCUAGUCAGCCACAGUUUGGGGAAAGCUGUGCAGCCUGUAACCCCCCCAGGAGAAGCUGGGAAAAACCGUCAUCAACAUUGCCUUUCUGUUGCCCAGUAAACUUAUCAUACGGAGCCAGGCUAUAUAAUUAGCUACUUCUCCGUGAGGUGCAGCCACGAGGUGCGAAAGUACGCAGCAAUGUGCUGAAUUCGCACGAAAGUUGGCGGAUUUCUUCGGAAAUCGAGCCAAUAAUCAUAUCCAUAUUAUCUGCGGAUGGAUGUGAACUGCAAGUGUUGCCCUCAUAACUUAUC / TGTTGCCCTCATAACTTATC / GATAAGTTATGAGGGCAACA [Table 7 editing template RNA 1 (EMX1) ; EMX1 target]
indel ratio to WT (indel ratio to WT) [3]: 2.53 | indel ratio to WT (indel ratio to WT) [4]: 3.18 | indel ratio to WT (indel ratio to WT) [5]: 0.00343 | indel ratio to WT (indel ratio to WT) [6]: 2.8 | indel ratio to WT (indel ratio to WT) [7]: 0.0299 | indel ratio to WT (indel ratio to WT) [8]: 0.00013 | indel ratio to WT (indel ratio to WT) [9]: 2.83 | indel ratio to WT (indel ratio to WT) [10]: 2.7 | indel ratio to WT (indel ratio to WT) [11]: 2.77 | indel ratio to WT (indel ratio to WT) [12]: 2.13
